Laboratory results taken from article PMC9288427, “The CIP2A-TOPBP1 complex safeguards chromosomal stability during mitosis” (Nature Communications, 2022).

Target: T1, GST-tagged CIP2A Armadillo repeat domain (ArmRD, aa 1-559) (human, UniProt Q8TCG1 1-559)
T1 construct: CIP2A, human, aa 1-559 (bases 1 through 1677 of the full length cDNA) cloned into pGEX-4T3; the results give the ArmRD as amino acids 1-560; the methods give the construct as aa 1-559; also called GST-ArmRP of CIP2A; GST-tagged ArmRD
Experiment: pull-down; 800 µg CHO protein extract with HA-TOPBP1 aa740-899 bound to anti-HA agarose beads (1 h, 4 °C), unbound fraction washed away, 5 µg purified GST-tagged ArmRD added for 90 min at 4 °C, washed 3 x 15 min with cold PBS; Western blot
Settings: both partners purified

binding result: binds
B1: HA-tagged TOPBP1 aa740-899 fragment expressed in ExpiCHO-S cells (domain or fragment, human, UniProt Q92547 740-899, looked up)
chain: NSTKEERSLETEITNGINLNSDTAEHPGTRLQTHRKTVVTPLDMNRFQSKAFRAVVSQHARQVAASPAVGQPLQKEPSLHLDTPSKFLSKDKLFKPSFDVKDALAALETPGRPSQQKRKPSTPLSEVIVKNLQLALANSSRNAVALSASPQLKEAQSEKE
notes: Same construct as m1, other host; source: ExpiCHO-S, transfected; not shown: HA, N-terminal, kept
